Laboratory results reported in US20250257130A1 (NONA BIOSCIENCES SUZHOU, published 2025).

What was measured:
[1] = target: T1, human ROR1 on cells (HEK293T-hROR1, PANC-1, A549) (human, UniProt Q01973 30-937); experiment: flow cytometry, HEK293T-hROR1 cells; HEK293T-hROR1 cells (ROR1 overexpressed), FACS: binds
T1 construct: whole, on cells; one molecule for the three cell lines; also called huROR1; cell surface ROR1
Procedure: (§1) In brief, anti-ROR1 antibodies were serially diluted in staining buffer (PBS containing 2% FBS). Antibody solution was incubated with 1×10⁵ cells at 4° C. for 1 hour. […] After 1-hour incubation at 4° C., cells were washed twice with staining buffer and subjected to flow cytometry. PR000374 (Bench marker 1) and non-relevant IgG isotype control (Crownbio) were used as positive and negative controls, respectively.

[2] = target: T2, Human ROR1-ECD-his (Acro Biosystems RO1-H522y) (human, UniProt Q01973 30-406); experiment: BLI, ROR1-His on HIS1K sensor, antibody in solution
T2 construct: extracellular domain; bought protein; also called hROR1-ECD-his; hu-ROR1-ECD-his
Procedure: In the example, binding kinetics of anti-ROR1 antibodies to soluble ROR1 protein were analyzed by using Bio-Layer Interferometry (BLI) analysis on Fortebio Octet Red384 instrument (Fortebio).
In BLI analysis, recombinant anti-ROR1 antibodies was serially diluted with 10× kinetics buffer (Fortebio). Human ROR1-His proteins were diluted to 20 nM. Then the diluted antibodies, ROR1 proteins and regeneration buffer (10 mM glycine HCl pH 1.5) were added to 96-well plates (Greiner). Rate constants for association and dissociation were measured using HIS1K sensor (Fortebio). The sensor surface was regenerated after each binding experiment with regeneration buffer. The traces were processed using Octet Data Analysis Software (version 11.0, Pall ForteBio, CA, USA).

[3] = target: T3, hu-ROR2-ECD-his (Acrobiosystems RO2-H52E5) (human, UniProt Q01974 34-403); experiment: ELISA, plate coated with hu-ROR2-his at 1 µg/mL
T3 construct: extracellular domain; bought protein; also called Human ROR2 his-tagged protein; Human ROR2, His Tag
Procedure: 1 μg/mL hu-ROR2-ECD-his (Acrobiocystems, RO2-H52E5) was added to the 96-well plate, 100 μL each well, incubated at 4° C. overnight, washing the plates with 1×PBST 3 times, 300 ul/well, blocking the plates with 2% BSA in 1×PBST, 200 ul/well at 37° C. for 1 hour, anti-ROR1 antibodies were serially diluted in staining buffer (PBS containing 2% BSA). Antibody solution was added to the plate and incubates at 37° C. for 1 hour, washing the plates with 1×PBST 3 times, 300 ul/well, adding secondary antibody 100 ul/well and incubate at 37° C. for 1 hour, washing the plates with 1×PBST 3 times, 300 ul/well and then add 100 ul/well TMB for about 5 min, stop the reaction by adding 100 ul/well 2M H₂SO₄, read the plates with Molecular device spectra max plus384 at 450 nm and 570 nm.

[4] = target: T4, cynomolgus ROR1 on CHO-K1-cynoROR1 cells (cynomolgus monkey, UniProt A0A2K5WTX7 30-937); experiment: flow cytometry, CHO-K1-cynoROR1 cells
T4 construct: whole, on cells
Procedure: as §1

[5] = target: T2, Human ROR1-ECD-his (Acro Biosystems …); experiment: ELISA, coated hu-ROR1-ECD-his
Procedure: Binding of recombinant anti-ROR1 antibodies to hu-ROR1-ECD-his was tested by ELISA. In brief, 1 μg/mL hu-ROR1-ECD-his was added to the 96-well plate, 100 μL each well, incubated at 4° C. overnight, washing the plates with 1×PBST 3 times, 300 ul/well, blocking the plates with 2% BSA in 1×PBST, 200 ul/well at 37° C. for 1 hour, anti-ROR1 antibodies were serially diluted in staining buffer (PBS containing 2% BSA). Antibody solution was added to the plate and incubates at 37° C. for 1 hour, washing the plates with 1×PBST 3 times, 300 ul/well, adding secondary antibody 100 ul/well and incubate at 37° C. for 1 hour, washing the plates with 1×PBST 3 times, 300 ul/well and then add 100 ul/well TMB for about 5 min, stop the reaction by adding 100 ul/well 2M H₂SO₄, read the plates with Molecular device spectra max plus384 at 450 nm and 570 nm.

T2 sequence (Q01973 30-406): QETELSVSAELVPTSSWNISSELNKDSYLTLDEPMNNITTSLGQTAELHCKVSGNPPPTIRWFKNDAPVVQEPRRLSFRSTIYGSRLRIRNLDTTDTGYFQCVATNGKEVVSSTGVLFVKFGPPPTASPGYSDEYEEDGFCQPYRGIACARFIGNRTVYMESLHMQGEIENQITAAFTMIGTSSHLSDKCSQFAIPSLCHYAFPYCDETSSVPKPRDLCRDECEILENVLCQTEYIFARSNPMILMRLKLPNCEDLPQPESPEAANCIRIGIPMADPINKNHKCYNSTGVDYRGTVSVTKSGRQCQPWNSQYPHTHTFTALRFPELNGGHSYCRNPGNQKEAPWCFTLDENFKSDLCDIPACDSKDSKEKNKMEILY
T3 sequence (Q01974 34-403): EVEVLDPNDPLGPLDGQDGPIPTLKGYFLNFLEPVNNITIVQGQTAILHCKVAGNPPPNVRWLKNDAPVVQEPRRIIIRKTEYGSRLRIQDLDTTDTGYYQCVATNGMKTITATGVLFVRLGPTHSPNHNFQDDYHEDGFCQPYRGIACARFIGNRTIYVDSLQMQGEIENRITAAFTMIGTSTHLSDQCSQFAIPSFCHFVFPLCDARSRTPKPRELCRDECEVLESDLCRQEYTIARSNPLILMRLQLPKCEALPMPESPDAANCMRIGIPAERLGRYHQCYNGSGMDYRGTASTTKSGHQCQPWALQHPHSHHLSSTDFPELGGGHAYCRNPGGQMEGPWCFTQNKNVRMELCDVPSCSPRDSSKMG
T1 sequence (Q01973 30-937): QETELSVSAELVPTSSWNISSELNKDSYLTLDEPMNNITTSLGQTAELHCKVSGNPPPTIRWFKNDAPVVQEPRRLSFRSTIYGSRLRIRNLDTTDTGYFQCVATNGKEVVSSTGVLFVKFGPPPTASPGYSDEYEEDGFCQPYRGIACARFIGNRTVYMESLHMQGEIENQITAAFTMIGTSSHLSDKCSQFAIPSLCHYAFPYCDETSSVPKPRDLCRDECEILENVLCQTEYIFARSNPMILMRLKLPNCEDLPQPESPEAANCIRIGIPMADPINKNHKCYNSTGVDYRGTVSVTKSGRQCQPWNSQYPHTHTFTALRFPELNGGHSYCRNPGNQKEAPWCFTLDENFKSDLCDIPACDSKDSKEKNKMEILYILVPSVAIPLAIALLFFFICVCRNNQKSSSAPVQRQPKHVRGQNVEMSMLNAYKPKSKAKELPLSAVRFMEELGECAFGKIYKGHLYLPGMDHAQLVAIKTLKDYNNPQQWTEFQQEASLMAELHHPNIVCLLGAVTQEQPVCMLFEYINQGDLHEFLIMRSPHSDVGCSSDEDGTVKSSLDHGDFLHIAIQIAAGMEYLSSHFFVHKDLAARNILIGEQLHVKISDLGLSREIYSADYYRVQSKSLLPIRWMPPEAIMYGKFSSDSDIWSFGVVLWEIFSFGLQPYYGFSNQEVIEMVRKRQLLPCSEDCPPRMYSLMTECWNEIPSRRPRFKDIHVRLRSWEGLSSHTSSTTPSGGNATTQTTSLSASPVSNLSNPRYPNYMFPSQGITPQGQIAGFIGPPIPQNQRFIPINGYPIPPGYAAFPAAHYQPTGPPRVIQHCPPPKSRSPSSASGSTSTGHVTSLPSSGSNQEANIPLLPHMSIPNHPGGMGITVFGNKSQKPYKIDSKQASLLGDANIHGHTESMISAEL

EC50 [1]: 0.085 µg/mL
Kd [2]: 0.623 nM
koff [2]: 0.00403 s⁻¹
kon [2]: 6.46e+06 M⁻¹ s⁻¹
binding result [3]: no binding (tested: about 15 µg/ml)
EC50 [4]: 7.53 µg/mL
MAX(MFI) [4]: 5.3e+06 MFI
EC50 [5]: 0.002 µg/mL
B1: PR303189 (antibody, human IgG1, V domains shown)
VH: EVQLVESGGGLVKPGGSLRLSCAASGFNLSDSYMSWIRQAPGKGLEWVSCISSSGSTIYYADSVKGRFTVSRDNAKNSLYLQMNHLRAEDTALYYCARDCVIGIRDDSDIWGQGTMVTVSS
notes: HCAb (heavy chain-only, human IgG1 Fc), no light chain
